Results: the MegaScale stability set (Tsuboyama et al. 2023)

B1: EHEE_rd4_0086 (parent)
chain: EIHIRTNGEEQARKVYKMLAKRNYDVKIEQHNGQWVVTAS
B2: HHH_rd1_0493 (parent)
chain: RDEDEKEKIKEALKRGNEDKAKEIAKRANVSPEEYERLRKEAE

Variants of: B1
Test: folding stability dG (cDNA display proteolysis); higher = more stable
Settings: PBS, room temperature

Row | Variant | folding stability dG [kJ/mol]
1 | S40K | 9.17
2 | S40Y | 8.21
3 | S40Q | 6.57
4 | S40P | 4.85
5 | S40V | 8.29
6 | S40H | 7.39
7 | S40L | 7.43
8 | S40T | 8.72
9 | S40W | 9.2
10 | S40M | 7.56
11 | S40A | 6.46
12 | S40R | 9.41
13 | S40D | 3.37
14 | S40I | 8.58
15 | S40F | 8.51
16 | S40E | 4.28
17 | S40N | 6.91
18 | S40G | 5.57
19 | A39K | 3.03
20 | A39M | 8.29
21 | A39H | 4.65
22 | A39Q | 1.94
23 | A39R | 4.02
24 | A39P | 1.24
25 | A39F | 9.72
26 | A39Y | 9.56
27 | A39L | 9.87

Row | Variant | folding stability dG [kJ/mol]
28 | A39T | 5.9
29 | A39S | 5.08
30 | A39D | 0.749
31 | A39G | 6.03
32 | A39N | 2.69
33 | A39V | 10.5
34 | A39W | 9.2
35 | A39E | 0.469
36 | A39I | 11.9
37 | T38W | 7.18
38 | T38S | 6.3
39 | T38H | 6.87
40 | T38N | 2.58
41 | T38G | 0.561
42 | T38Y | 7.32
43 | T38F | 7.2
44 | T38V | 9.4
45 | T38R | 7.46
46 | T38A | 3.49
47 | T38Q | 3.48
48 | T38D | 0.0962
49 | T38E | 2.27
50 | T38I | 10.8
51 | T38K | 7.13
52 | T38M | 6.97
53 | T38L | 7.31
54 | V37W | -0.105

Variants of: B2
Test: as above
Settings: PBS, room temperature

Row | Variant | folding stability dG [kJ/mol]
55 | K14D | 4.61
56 | K14E | 7.3
57 | K14S | 9.86
58 | K14H | 9.52
59 | K14Y | 8.24
60 | K14C | 9.38
61 | K14T | 8.67
62 | K14I | 11.2
63 | K14L | 11.2
64 | K14W | 7.95
65 | K14P | 1.74
66 | K14Q | 9.61
67 | K14V | 9.77
68 | K14G | 8.3
69 | K14F | 7.52
70 | K14A | 10.6
71 | K14M | 11.7
72 | K14R | 13.9
73 | K14N | 7.58
74 | A12L | 12.6
75 | A12Q | 11.3
76 | A12E | 11.9
77 | A12D | 3.12
78 | A12N | 8.78
79 | A12H | 11.9
80 | A12K | 3.75

Row | Variant | folding stability dG [kJ/mol]
81 | A12C | 8.13
82 | A12W | 12.6
83 | A12M | 12
84 | A12V | 4.42
85 | A12T | 5.96
86 | A12P | 0.958
87 | A12F | 12
88 | A12S | 9.01
89 | A12I | 5.18
90 | A12Y | 12
91 | A12G | 2.74
92 | A12R | 3.69
93 | K6A | 10.8
94 | K6V | 11.5
95 | K6G | 10.3
96 | K6C | 7.53
97 | K6Y | 14.2
98 | K6S | 10.7
99 | K6L | 13.6
100 | K6H | 12.8
101 | K6R | 13.8
102 | K6D | 7.73
103 | K6Q | 9.98
104 | K6M | 13
105 | K6T | 10.9
106 | K6F | 13.5

Row | Variant | folding stability dG [kJ/mol]
107 | K6N | 10.6
108 | K6W | 13.9
109 | K6E | 9.51
110 | K6I | 13.6
111 | K6P | 7.18
112 | E11V | 8.55
113 | E11T | 9.6
114 | E11A | 11.8
115 | E11W | 7.99
116 | E11F | 6.54
117 | E11M | 11.2
118 | E11Y | 6.98
119 | E11P | 3.43
120 | E11K | 9.37
121 | E11C | 12.5
122 | E11R | 10.6
123 | E11G | 9.8
124 | E11D | 12.4
125 | E11S | 10.8
126 | E11N | 12.1
127 | E11L | 11.3
128 | E11Q | 11.8
129 | E11H | 9.97
130 | E11I | 10.1
131 | K10Y | 8.42
132 | K10H | 3.92

Row | Variant | folding stability dG [kJ/mol]
133 | K10L | 11.7
134 | K10D | 2.69
135 | K10E | 3.54
136 | K10Q | 3.57
137 | K10T | 7.1
138 | K10V | 9.53
139 | K10G | 2.21
140 | K10I | 11.7
141 | K10P | 0.268
142 | K10N | 3.85
143 | K10S | 5.33
144 | K10C | 9.71
145 | K10M | 8.43
146 | K10W | 6.59
147 | K10R | 10.4
148 | K10A | 4.57
149 | K10F | 8.84
150 | I9T | 2.55
151 | I9N | 3.58
152 | I9G | 2.52
153 | I9L | 9.55
154 | I9H | 1.97
155 | I9S | 2.46
156 | I9K | 1.66
157 | I9R | 1.7
158 | I9Y | 2.41

Row | Variant | folding stability dG [kJ/mol]
159 | I9F | 3.24
160 | I9M | 6.18
161 | I9D | 2
162 | I9Q | 1.99
163 | I9P | 2.42
164 | I9V | 8.73
165 | I9W | 2.57
166 | I9A | 3.33
167 | I9C | 5.29
168 | I9E | 2.46
169 | D4A | 11.8
170 | D4P | 10.4
171 | D4I | 12.3
172 | D4Y | 12.2
173 | D4G | 11.7
174 | D4F | 11.4
175 | D4M | 12.4
176 | D4V | 12
177 | D4K | 11.8
178 | D4S | 12.7
179 | D4C | 12.4
180 | D4E | 12.4
181 | D4T | 12.2
182 | D4W | 12.7
183 | D4Q | 12
184 | D4N | 12.1

Row | Variant | folding stability dG [kJ/mol]
185 | D4H | 11.8
186 | D4L | 12.6
187 | D4R | 12
188 | R1S | 13.2
189 | R1T | 13.7
190 | R1Q | 13
191 | R1C | 11.1
192 | R1A | 13.5
193 | R1W | 12.7
194 | R1E | 12.6
195 | R1D | 13.1
196 | R1P | 13.3
197 | R1V | 13.5
198 | R1M | 12.7
199 | R1G | 13
200 | R1Y | 13
201 | R1L | 12.9
202 | R1K | 13.1
203 | R1F | 12.6
204 | R1I | 13.4
205 | R1H | 13
206 | R1N | 13.2
207 | R15L | 12.9
208 | R15N | 13.3
209 | R15C | 9.64
210 | R15S | 13

Row | Variant | folding stability dG [kJ/mol]
211 | R15D | 11.9
212 | R15K | 12.2
213 | R15A | 14.1
214 | R15G | 11.3
215 | R15F | 11
216 | R15I | 11.6
217 | R15H | 12.5
218 | R15E | 13.5
219 | R15M | 13.4
220 | R15Q | 14.2
221 | R15P | 2.62
222 | E7W | 13.8
223 | E7M | 13
224 | E7D | 11.3
225 | E7R | 13.2
226 | E7P | 6.61
227 | E7K | 13
228 | E7I | 12.8
229 | E7N | 12.4
230 | E7Q | 13.1
231 | E7Y | 11.9
232 | E7V | 12.4
233 | E7L | 12.9
234 | E7G | 11
235 | E7H | 12.3
236 | E7F | 12.5

Row | Variant | folding stability dG [kJ/mol]
237 | E7T | 12.6
238 | E7S | 12.2
239 | E7A | 12.9
240 | E5K | 9.37
241 | E5D | 12.5
242 | E5G | 8.69
243 | E5M | 13.9
244 | E5N | 11.3
245 | E5Y | 18.4
246 | E5C | 10.1
247 | E5L | 15.1
248 | E5R | 8.79
249 | E5A | 15.5
250 | E5S | 12.6
251 | E5W | 18.6
252 | E5T | 14.1
253 | E5V | 17
254 | E5Q | 12
255 | E5F | 16.9
256 | E5I | 17
257 | E5P | 14.5
258 | E5H | 13.8
259 | L13M | 10.4
260 | L13T | 1.97
261 | L13A | 2.21
262 | L13G | 0.983

Row | Variant | folding stability dG [kJ/mol]
263 | L13P | 1.82
264 | L13C | 5.73
265 | L13I | 11.9
266 | L13Q | 2.57
267 | L13K | 1.14
268 | L13D | 1.59
269 | L13E | 1.57
270 | L13V | 6.61
271 | L13S | 1.39
272 | L13N | 1.74
273 | L13F | 11.9
274 | L13W | 4.77
275 | L13Y | 3.68
276 | L13R | 1.68
277 | L13H | 3.62
278 | E3S | 12.1
279 | E3D | 13
280 | E3H | 12.5
281 | E3Y | 12.6
282 | E3F | 12.3
283 | E3R | 12.3
284 | E3M | 11.8
285 | E3C | 10.8
286 | E3V | 11.5
287 | E3I | 11.5
288 | E3K | 12.3

Row | Variant | folding stability dG [kJ/mol]
289 | E3N | 12.5
290 | E3L | 12.1
291 | E3T | 12.3
292 | E3G | 12
293 | E3Q | 12.8
294 | E3W | 12.6
295 | E3P | 11.7
296 | E3A | 12.1
297 | D2F | 13.5
298 | D2K | 11.8
299 | D2S | 11.3
300 | D2P | 12.8
301 | D2L | 14.2
302 | D2T | 12.7
303 | D2Q | 13.2
304 | D2G | 12.3
305 | D2W | 13.3
306 | D2C | 12.3
307 | D2I | 13.4
308 | D2R | 11.7
309 | D2E | 13
310 | D2H | 12.8
311 | D2A | 12
312 | D2M | 12
313 | D2V | 13.3
314 | D2Y | 14.1

Row | Variant | folding stability dG [kJ/mol]
315 | D2N | 12.6
316 | K8Q | 13.2
317 | K8I | 8.8
318 | K8A | 13.7
319 | K8N | 10.7
320 | K8R | 12.6
321 | K8Y | 8.75
322 | K8H | 10.1
323 | K8S | 11.6
324 | K8T | 9.49
325 | K8C | 9.91
326 | K8M | 12.9
327 | K8G | 9.79
328 | K8F | 8.89
329 | K8E | 11.1
330 | K8W | 10.2
331 | K8P | 3.54
332 | K8L | 12.8
333 | K8V | 8.1
334 | K8D | 9.41
